Assay results from US6303357A, “L-α-glycerophosphate oxidase gene, recombinant DNA, and method for producing modified L-α-glycerophosphate oxidase gene” (priority 2000, dated 2001).

Tests used:
Format in all cases: biochemical, Enterococcus faecium
[1] = system: O=P(O)(O)OCC(O)CO; assay: Km value of modified GPO Ala 225/Gly 420; conditions: other: Ala 225, Gly 420, 37° C., pH 7.0 activity assay
Protocol: (§1) According to the invention, method for the measurement GPO activity is as follows unless otherwise noted.
(§2) 300 mM Sodium (±)-1-glycerophosphate n-hydrate
(§3) A 1.0 ml portion of a reaction solution having the above composition is put into a test tube and subjected to 5 minutes of preliminary incubation at 37° C., and then 20 μl of an enzyme solution is added thereto to carry out 5 minutes of the reaction at 37° C. After the reaction, 2.0 ml of 0.5% SDS solution is added to terminate the reaction, and calorimetric determination is carried out at a wavelength of 600 nm. An activity capable of forming 1 μmole of hydrogen peroxide within 1 minute was defined as 1 unit (U). [formula]
(§4) The resulting cells were collected by centrifugation, washed with 10 mM Tris-HCl buffer (pH 8.0) containing 0.1 M sodium chloride and 1 mM EDTA and then suspended in a solution prepared by adding 1 mg/ml of lysozyme to 50 mM potassium phosphate buffer (pH 7.0) containing 10 mM EDTA and 0.1% Triton X-100, subsequently carrying out 2 hours of cell lysis at 4° C. After the cell lysis, this was subjected to ultrasonic disintegration and then centrifuged, and the supernatant was used as the enzyme solution to measure its enzyme activity, heat resistance and Km value.
(§5) In addition, improvement of two or more properties was found by a combination of these mutations. […]

[2] = system: O=P(O)(O)OCC(O)CO; assay: Km value of modified GPO Phe 130/Ala 225; conditions: other: Phe 130, Ala 225, 37° C., pH 7.0 activity assay
Protocol: as §1, §2, §3, §4, §5

[3] = system: O=P(O)(O)OCC(O)CO; assay: Km value of GPO (wild type control, E. coli DH5/pGPO97); conditions: other: wild type GPO, 37° C., pH 7.0 activity assay
Protocol: as §1, §2, §3, §4, §5

Enterococcus faecium No. 7044 L-α-glycerophosphate oxidase (GPO) variant Ala 225/Gly 420 (Enterococcus faecium DO; D212G/D427G/S17A)
Km [1]: 28.8 mM

Enterococcus faecium No. 7044 L-α-glycerophosphate oxidase (GPO) variant Phe 130/Ala 225 (Enterococcus faecium DO; L137F/L267F/S362A)
Km [2]: 4.6 mM

Enterococcus faecium No. 7044 L-α-glycerophosphate oxidase (GPO), wild type, Sequence No. 1 (Enterococcus faecium DO)
Km [3]: 23.2 mM
